In data set [1] the target is T1, G. intestinalis thymidine kinase (TK) (Giardia duodenalis, UniProt A8BRU1).
T1 construct: gene GL50803_008364; full length, 392 residues, 42 kDa, monomer (mass photometry); expressed in E. coli BL21(DE3)pLysS from pET-Z as His6-Z fusion, tag removed with TEV protease; two TK1-like domains (1-210 active, 211-392 degenerate)
T1 sequence (A8BRU1 1-392): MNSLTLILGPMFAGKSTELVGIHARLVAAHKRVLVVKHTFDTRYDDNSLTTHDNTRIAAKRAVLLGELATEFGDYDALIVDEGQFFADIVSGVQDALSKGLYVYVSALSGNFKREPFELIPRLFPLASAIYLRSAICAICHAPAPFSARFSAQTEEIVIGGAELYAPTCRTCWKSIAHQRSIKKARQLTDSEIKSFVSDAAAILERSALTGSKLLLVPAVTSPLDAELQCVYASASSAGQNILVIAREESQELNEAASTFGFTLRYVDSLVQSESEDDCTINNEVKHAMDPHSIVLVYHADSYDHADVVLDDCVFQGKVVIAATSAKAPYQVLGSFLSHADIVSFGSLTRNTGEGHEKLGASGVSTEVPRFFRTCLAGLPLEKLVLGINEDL
The data set is described as follows: thymidine kinase assay (phosphorylation of the nucleoside). It is filed as biochemical. To be noted: 2 mM ATP, 5 mM MgCl2, 0.5 mM DTT, 100 mM potassium acetate, 50 mM Tris-HCl pH 7.5, 37 °C. From the text: (§1) thymidine kinase assay (phosphorylation of the nucleoside) on G. intestinalis thymidine kinase (TK)

For data set [2], the target named is T1, G. intestinalis thymidine kinase (TK). Description: radiometric [[…]'-3H]thymidine phosphorylation, DE81 / Hybond-XL filter assay. Type of data set: biochemical.
Substrate in data set [3]: Nc1ccn([C@@H]2O[C@H](COP(=O)(O)OP(=O)(O)OP(=O)(O)O)[C@@H](O)[C@H]2O)c(=O)n1
The data set is described as follows: purified protein. Type of data set: biochemical, Giardia duodenalis. To be noted: phosphate donor varied, 1 μM thymidine, 10 mM MgCl2, pH 7.5, 37 °C.

Substrate in data set [4]: Nc1nc2c(ncn2[C@@H]2O[C@H](COP(=O)(O)OP(=O)(O)OP(=O)(O)O)[C@@H](O)[C@H]2O)c(=O)[nH]1
Description: purified protein. Type of data set: biochemical, Giardia duodenalis. To be noted: phosphate donor varied, 1 μM thymidine, 10 mM MgCl2, pH 7.5, 37 °C.

Substrate in data set [5]: Nc1ncnc2c1ncn2[C@@H]1O[C@H](COP(=O)(O)OP(=O)(O)OP(=O)(O)O)[C@@H](O)[C@H]1O
Description: purified protein. It is filed as biochemical, Giardia duodenalis. To be noted: phosphate donor varied, 1 μM thymidine, 10 mM MgCl2, pH 7.5, 37 °C.

Substrate in data set [6]: O=c1ccn([C@@H]2O[C@H](COP(=O)(O)OP(=O)(O)OP(=O)(O)O)[C@@H](O)[C@H]2O)c(=O)[nH]1
The data set is described as follows: purified protein. It is filed as biochemical, Giardia duodenalis. To be noted: phosphate donor varied, 1 μM thymidine, 10 mM MgCl2, pH 7.5, 37 °C.

Substrate in data set [7]: Cc1cn([C@@H]2O[C@H](CO)[C@@H](O)[C@@H]2O)c(=O)[nH]c1=O
The data set is described as follows: thymidine kinase assay (phosphorylation of the nucleoside). Type of data set: biochemical, Giardia duodenalis. To be noted: 2 mM ATP, 5 mM MgCl2, 0.5 mM DTT, 100 mM potassium acetate, 50 mM Tris-HCl pH 7.5, 37 °C.
Excerpt: as §1

Substrate in data set [8]: Cc1cn([C@H]2C=C[C@@H](CO)O2)c(=O)[nH]c1=O
The description is as above. To be noted: 2 mM ATP, 5 mM MgCl2, 0.5 mM DTT, 100 mM potassium acetate, 50 mM Tris-HCl pH 7.5, 37 °C. Type of data set: biochemical, Giardia duodenalis.
Excerpt: as §1

Substrate in data set [9]: O=c1ccn([C@H]2C[C@H](O)[C@@H](CO)O2)c(=O)[nH]1
Described as above. It is filed as biochemical, Giardia duodenalis. To be noted: 2 mM ATP, 5 mM MgCl2, 0.5 mM DTT, 100 mM potassium acetate, 50 mM Tris-HCl pH 7.5, 37 °C.
Excerpt: as §1

Here are results for 3 molecules from article PMC9190010, “Giardia intestinalis thymidine kinase is a high-affinity enzyme crucial for DNA synthesis and an exploitable target for drug discovery” (The Journal of Biological Chemistry, 2022).

For `Cc1cn([C@H]2C[C@H](N=[N+]=[N-])[C@@H](CO)O2)c(=O)[nH]c1=O` [AZT], the “Km (μM)” value in [1] is reported as 0.044 ± 0.002 (12%) μM.
Take `Cc1cn([C@H]2C[C@H](O)[C@@H](COP(=O)(O)OP(=O)(O)OP(=O)(O)O)O2)c(=O)[nH]c1=O` [dTTP]: the IC50 (usually the concentration that gives 50% inhibition) in [2] stood at 30 ± 3 µM.

B1: G. intestinalis thymidine kinase (TK) (Giardia lamblia ATCC 50803) (protein)
chain: T1 sequence (A8BRU1 1-392)
notes: full length, 392 residues, 42 kDa, monomer (mass photometry); expressed in E. coli BL21(DE3)pLysS from pET-Z as His6-Z fusion, tag removed with TEV protease; two TK1-like domains (1-210 active, 211-392 degenerate)
B1: the Km (as a rule, the concentration of substrate that gives half-maximal velocity) in [3] came out at 2396 ± 199 µM; in data set [4] it was 1303 ± 78 µM; in [5], 467 ± 29 µM; in data set [6] it was 1927 ± 269 µM; in data set [7] it was 425 ± 47 µM; in data set [8], 39 ± 13 µM. For the same molecule, the Km in [9] worked out at 5.3 ± 1.3 µM. For the same molecule, the Vmax – broadly, the rate approached at saturating substrate – in [3] worked out at 1.7 µmol/min; in data set [4] it was 2.41 µmol/min; in data set [5], 0.93 µmol/min; in [6] it was 1.66 µmol/min; in data set [7] it was 0.68 µmol/min; in [8], 0.25 µmol/min. In [9], the Vmax was 1.02 µmol/min. Besides, the kcat (as a rule, the maximal rate divided by the concentration of active sites) in [3] came out at 1.19 s⁻¹; in data set [4] it was 1.69 s⁻¹; in data set [5] it was 0.65 s⁻¹; in data set [6] it was 1.16 s⁻¹; in data set [7] it was 0.48 s⁻¹; in data set [8], 0.17 s⁻¹. In data set [9], the kcat was 0.67 s⁻¹. In addition, the kcat/Km (commonly the turnover number divided by the Michaelis constant) in [3] is 500 M⁻¹ s⁻¹; in data set [4] it was 1300 M⁻¹ s⁻¹; in data set [5], 1400 M⁻¹ s⁻¹; in [6], 600 M⁻¹ s⁻¹; in data set [7] it was 1100 M⁻¹ s⁻¹; in [8], 4500 M⁻¹ s⁻¹. Besides, in data set [9], the kcat/Km came out at 134000 M⁻¹ s⁻¹.
